Positions count from the first letter of the chain named. Numbers in names are those of the source.
Tested on: Lenti-X 293T cells
Assay: YFP fluorescence quenching anion reporter plate reader assay of engineered receptors stimulated with acetylcholine or a non-native ligand
Assay type: cell-based
Conditions: for percent quench of YFP fluorescence, 10 uM ach: acetylcholine 10 uM; for percent quench of YFP fluorescence, 100 uM ach: acetylcholine 100 uM; for percent quench of YFP fluorescence, 1 mM ach: acetylcholine 1 mM; for percent quench of YFP fluorescence, 3 mM ach: acetylcholine 3 mM
Method in brief: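 YFP quench was followed for about 1 min 43 s after ligand delivered in iodide-based ECS, pH 7.2. Values are end-of-read fluorescence (last 10 s) divided by the pre-ligand baseline (15 s). Cells were LX293T, transfected with receptor DNA a day before the assay.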

B1: CODA805: engineered chimeric LGIC receptor, Y115D, S170T in SEQ ID NO: 33 (protein)
chain: MRCSPGGVWLALAASLLHVSLQGEFQRKLYKELVKNYNPLERPVANDSQPLTVYFSLSLLQIMDVDEKNQVLTTNIWLQMSWTDHYLQWNVSEYPGVKTVRFPDGQIWKPDILLDNSADERFDATFHTNVLVNSSGHCQYLPPGIFKSSCPMDLKNFPMDVQTCKLKFGTWSYGGWSLDLQMQEADISGYIPNGEWDLVGIPGKRSERFYECCKEPYPDVTFTVTMRRRMGYYLIQMYIPSLLIVILSWISFWINMDAAPARVGLGITTVLTMTTQSSGSRASLPKVSYVKAIDIWMAVCLLFVFSALLEYAAVNFVSRQHKELLRFRRKRRHHKSPMLNLFQEDEAGEGRFNFSAYGMGPACLQAKDGISVKGANNSNTTNPPPAPSKSPEEMRKLFIQRAKKIDKISRIGFPMAFLIFNMFYWIIYKIVRREDVHNQ
modifications: synthetic sequence of chimeric LGIC
1 nM CNL001, first column
  YFP fluorescence quenching using CNL001: −10.729%
1 nM CNL001, second column
  YFP fluorescence quenching using CNL001: −15.278%
1 nM brd
  YFP fluorescence quenching using TC-5619/Bradanicline: −9.78%
3 nM brd
  YFP fluorescence quenching using TC-5619/Bradanicline: −12.06%
10 nM CNL001, first column
  YFP fluorescence quenching using CNL001: −20.403%
10 nM CNL001, second column
  YFP fluorescence quenching using CNL001: −14.905%
10 nM brd
  YFP fluorescence quenching using TC-5619/Bradanicline: −9.02%
30 nM brd
  YFP fluorescence quenching using TC-5619/Bradanicline: −16.3%
30 nM fac
  YFP fluorescence quenching using Facinicline: 38.08
50 nM CNL001, first column
  YFP fluorescence quenching using CNL001: −14.303%
50 nM CNL001, second column
  YFP fluorescence quenching using CNL001: −15.741%
50 nM abt
  YFP fluorescence quenching using ABT-126: −11.83%
100 nM CNL001, first column
  YFP fluorescence quenching using CNL001: −12.637%
100 nM CNL001, second column
  YFP fluorescence quenching using CNL001: −10.606%
100 nM CNL002
  YFP fluorescence quenching using CNL002: −18.17%
100 nM abt
  YFP fluorescence quenching using ABT-126: −11.5%
100 nM azd0328
  YFP fluorescence quenching using AZD-0328: −0.71%
100 nM brd
  YFP fluorescence quenching using TC-5619/Bradanicline: −7.44%
100 nM fac
  YFP fluorescence quenching using Facinicline: −14.37
300 nM abt
  YFP fluorescence quenching using ABT-126: −8.01%
300 nM azd0328
  YFP fluorescence quenching using AZD-0328: −1.73%
300 nM brd
  YFP fluorescence quenching using TC-5619/Bradanicline: −10.93%
300 nM fac
  YFP fluorescence quenching using Facinicline: 19.41
1 uM CNL001, first column
  YFP fluorescence quenching using CNL001: −13.535%
1 uM CNL001, second column
  YFP fluorescence quenching using CNL001: −11.335%
1 uM CNL002
  YFP fluorescence quenching using CNL002: −15.2%
1 uM abt
  YFP fluorescence quenching using ABT-126: −9.34%
1 uM brd
  YFP fluorescence quenching using TC-5619/Bradanicline: −4.55%
1 uM tc6987
  YFP fluorescence quenching using TC-6987: 31.9
10 uM fac
  YFP fluorescence quenching using Facinicline: 67.33
10 uM tc6987
  YFP fluorescence quenching using TC-6987: 25.54
30 uM CNL002
  YFP fluorescence quenching using CNL002: −14%
30 uM azd0328
  YFP fluorescence quenching using AZD-0328: 47.39%
30 uM fac
  YFP fluorescence quenching using Facinicline: 79.67
500 uM tc6987
  YFP fluorescence quenching using TC-6987: 21.13
  percent quench of YFP fluorescence, 10 uM ach: −0.46%
  percent quench of YFP fluorescence, 100 uM ach: −4.93%
  percent quench of YFP fluorescence, 1 mM ach: −11.18%
  percent quench of YFP fluorescence, 3 mM ach: −3.53%

B2: CODA807: engineered chimeric LGIC receptor, Y115D, L131E in SEQ ID NO: 33 (protein)
chain: B1 chain with L131E, T170S
modifications: synthetic sequence of chimeric LGIC
1 nM CNL001, first column
  YFP fluorescence quenching using CNL001: 0.885%
1 nM CNL001, second column
  YFP fluorescence quenching using CNL001: −1.707%
1 nM brd
  YFP fluorescence quenching using TC-5619/Bradanicline: −1.52%
3 nM brd
  YFP fluorescence quenching using TC-5619/Bradanicline: −5.35%
10 nM CNL001, first column
  YFP fluorescence quenching using CNL001: −0.567%
10 nM CNL001, second column
  YFP fluorescence quenching using CNL001: 0.043%
10 nM brd
  YFP fluorescence quenching using TC-5619/Bradanicline: −3.49%
30 nM brd
  YFP fluorescence quenching using TC-5619/Bradanicline: −2.16%
30 nM fac
  YFP fluorescence quenching using Facinicline: 45.76
50 nM CNL001, first column
  YFP fluorescence quenching using CNL001: 5.141%
50 nM CNL001, second column
  YFP fluorescence quenching using CNL001: 9.409%
50 nM abt
  YFP fluorescence quenching using ABT-126: −1.68%
100 nM CNL001, first column
  YFP fluorescence quenching using CNL001: 9.796%
100 nM CNL001, second column
  YFP fluorescence quenching using CNL001: 11.009%
100 nM CNL002
  YFP fluorescence quenching using CNL002: −5.71%
100 nM abt
  YFP fluorescence quenching using ABT-126: −2.25%
100 nM azd0328
  YFP fluorescence quenching using AZD-0328: 24.49%
100 nM brd
  YFP fluorescence quenching using TC-5619/Bradanicline: 4.18%
100 nM fac
  YFP fluorescence quenching using Facinicline: 63.92
300 nM abt
  YFP fluorescence quenching using ABT-126: −2.37%
300 nM azd0328
  YFP fluorescence quenching using AZD-0328: 45.34%
300 nM brd
  YFP fluorescence quenching using TC-5619/Bradanicline: 70.2%
300 nM fac
  YFP fluorescence quenching using Facinicline: 79.43
1 uM CNL001, first column
  YFP fluorescence quenching using CNL001: 27.914%
1 uM CNL001, second column
  YFP fluorescence quenching using CNL001: 29.109%
1 uM CNL002
  YFP fluorescence quenching using CNL002: 13.03%
1 uM abt
  YFP fluorescence quenching using ABT-126: 3.68%
1 uM brd
  YFP fluorescence quenching using TC-5619/Bradanicline: 43.11%
1 uM tc6987
  YFP fluorescence quenching using TC-6987: 36.07
10 uM fac
  YFP fluorescence quenching using Facinicline: 80.1
10 uM tc6987
  YFP fluorescence quenching using TC-6987: 31.35
30 uM CNL002
  YFP fluorescence quenching using CNL002: 25.2%
30 uM azd0328
  YFP fluorescence quenching using AZD-0328: 71.21%
30 uM fac
  YFP fluorescence quenching using Facinicline: 84.91
500 uM tc6987
  YFP fluorescence quenching using TC-6987: 28.18
TC-6683 30 nM
  percent quench of YFP fluorescence, 30 nM TC-6683: −26.801%
TC-6683 300 nM
  percent quench of YFP fluorescence, 300 nM TC-6683: −25.363%
TC-6683 3 uM
  percent quench of YFP fluorescence, 3 uM TC-6683: −23.651%
TC-6683 30 uM
  percent quench of YFP fluorescence, 30 uM TC-6683: −26.235%
TC-6683 100 uM
  percent quench of YFP fluorescence, 100 uM TC-6683: −24.182%
  percent quench of YFP fluorescence, 10 uM ach: 15.45%
  percent quench of YFP fluorescence, 100 uM ach: 13.77%
  percent quench of YFP fluorescence, 1 mM ach: 27.42%
  percent quench of YFP fluorescence, 3 mM ach: 53.62%
